Experiments:
DiCas7-11 = DiCas7-11 (Desulfonema ishimotonii, UniProt A0A401FT36 1-1601); experiment: cryo-EM; EMSA: 40 mM Tris-HCl pH 7.5, 60 mM NaCl, 6 mM MgCl2, 30 min at 4 C; 15% native PAGE; cryo-EM samples: 20 mM HEPES-NaOH pH 8.0, 300 mM NaCl, 0.5 mM DTT; conditions: protein: recombinant; tags: N-terminal 8xHis-SUMO-TEV; single strand, V-shaped 5' repeat
DiCas7-11;DiTPR-CHAT NTD = DiCas7-11;DiTPR-CHAT NTD (Desulfonema ishimotonii;Desulfonema …, UniProt A0A401FT36;A0A401FT52 1-1601;1-65, |); experiment: cryo-EM; with TPR-CHAT NTD; EMSA: 40 mM Tris-HCl pH 7.5, 60 mM NaCl, 6 mM MgCl2, 30 min at 4 C; 15% native PAGE; cryo-EM samples: 20 mM HEPES-NaOH pH 8.0, 300 mM NaCl, 0.5 mM DTT; conditions: protein: recombinant;recombinant; tags: N-terminal 8xHis-SUMO-TEV;C-terminal 2xStrep; copies: 1;1; single strand, V-shaped 5' repeat
DiCas7-11;DiTPR-CHAT = DiCas7-11;DiTPR-CHAT (Desulfonema ishimotonii;Desulfonema …, UniProt A0A401FT36;A0A401FT52 1-1601;1-751, |); experiment: cryo-EM; with full-length TPR-CHAT; EMSA: 40 mM Tris-HCl pH 7.5, 60 mM NaCl, 6 mM MgCl2, 30 min at 4 C; 15% native PAGE; cryo-EM samples: 20 mM HEPES-NaOH pH 8.0, 300 mM NaCl, 0.5 mM DTT; conditions: protein: recombinant;recombinant; tags: N-terminal 8xHis-SUMO-TEV;C-terminal 2xStrep; copies: 1;1; single strand, V-shaped 5' repeat
DiCas7-11Inactive = DiCas7-11Inactive (Desulfonema ishimotonii, UniProt A0A401FT36 1-1601, D429A;D654A); experiment: cryo-EM; pre-crRNA at 1:2 molar ratio; target RNA not seen in the map; EMSA: 40 mM Tris-HCl pH 7.5, 60 mM NaCl, 6 mM MgCl2, 30 min at 4 C; 15% native PAGE; cryo-EM samples: 20 mM HEPES-NaOH pH 8.0, 300 mM NaCl, 0.5 mM DTT; conditions: protein: recombinant; tags: N-terminal 8xHis-SUMO-TEV
Sequence of DiCas7-11Inactive (A0A401FT36 entry or part of it D429A;D654A): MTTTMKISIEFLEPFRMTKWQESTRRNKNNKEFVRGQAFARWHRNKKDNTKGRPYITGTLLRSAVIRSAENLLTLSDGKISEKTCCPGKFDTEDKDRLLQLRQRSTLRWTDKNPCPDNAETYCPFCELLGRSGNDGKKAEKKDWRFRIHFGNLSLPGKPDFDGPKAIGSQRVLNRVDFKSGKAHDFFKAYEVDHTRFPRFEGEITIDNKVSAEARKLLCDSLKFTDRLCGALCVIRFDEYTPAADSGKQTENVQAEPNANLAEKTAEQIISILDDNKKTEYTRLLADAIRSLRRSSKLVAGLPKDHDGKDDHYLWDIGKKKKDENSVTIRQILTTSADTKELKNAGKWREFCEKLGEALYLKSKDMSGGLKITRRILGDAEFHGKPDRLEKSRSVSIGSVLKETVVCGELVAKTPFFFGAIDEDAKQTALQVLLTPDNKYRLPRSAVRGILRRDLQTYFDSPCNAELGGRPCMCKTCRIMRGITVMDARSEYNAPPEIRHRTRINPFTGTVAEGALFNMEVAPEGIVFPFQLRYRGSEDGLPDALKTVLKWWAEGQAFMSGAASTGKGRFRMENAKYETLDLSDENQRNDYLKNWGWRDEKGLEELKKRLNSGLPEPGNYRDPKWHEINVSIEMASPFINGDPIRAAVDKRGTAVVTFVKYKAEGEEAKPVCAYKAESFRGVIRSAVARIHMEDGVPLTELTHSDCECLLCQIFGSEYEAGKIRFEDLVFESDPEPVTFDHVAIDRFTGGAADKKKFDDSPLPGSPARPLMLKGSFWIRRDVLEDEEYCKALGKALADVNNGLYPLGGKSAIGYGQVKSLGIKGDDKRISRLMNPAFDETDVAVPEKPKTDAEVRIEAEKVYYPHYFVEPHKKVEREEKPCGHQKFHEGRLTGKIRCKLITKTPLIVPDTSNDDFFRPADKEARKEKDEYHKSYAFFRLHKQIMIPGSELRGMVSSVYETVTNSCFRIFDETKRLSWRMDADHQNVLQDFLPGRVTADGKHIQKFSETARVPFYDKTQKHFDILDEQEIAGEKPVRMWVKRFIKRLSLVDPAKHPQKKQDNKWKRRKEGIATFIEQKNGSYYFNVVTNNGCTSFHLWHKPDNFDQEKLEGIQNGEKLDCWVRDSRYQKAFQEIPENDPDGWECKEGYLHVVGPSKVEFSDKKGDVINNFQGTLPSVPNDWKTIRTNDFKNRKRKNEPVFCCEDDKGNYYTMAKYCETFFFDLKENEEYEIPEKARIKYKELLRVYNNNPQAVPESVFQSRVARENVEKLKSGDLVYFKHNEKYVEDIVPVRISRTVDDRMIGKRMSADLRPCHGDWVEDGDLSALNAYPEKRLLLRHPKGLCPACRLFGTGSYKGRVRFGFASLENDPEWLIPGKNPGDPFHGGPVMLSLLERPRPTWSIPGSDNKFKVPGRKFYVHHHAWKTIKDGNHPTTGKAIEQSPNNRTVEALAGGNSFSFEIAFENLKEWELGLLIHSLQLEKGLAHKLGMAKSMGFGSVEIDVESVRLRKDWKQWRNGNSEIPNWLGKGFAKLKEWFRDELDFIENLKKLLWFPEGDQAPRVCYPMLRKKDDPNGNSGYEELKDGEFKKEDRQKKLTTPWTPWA

Sequence of DiCas7-11;DiTPR-CHAT NTD (chain, as listed by the source |, chain 1 of 2): as the sequence (A0A401FT36 entry or part of it D429A;D654A) above, with A429D, A654D counted along it
Sequence of DiCas7-11;DiTPR-CHAT NTD (chain, as listed by the source |, chain 2 of 2): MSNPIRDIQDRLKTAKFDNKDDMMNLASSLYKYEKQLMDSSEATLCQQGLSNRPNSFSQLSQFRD
Sequence of DiCas7-11;DiTPR-CHAT (chain, as listed by the source |, chain 1 of 2): as the sequence (A0A401FT36 entry or part of it D429A;D654A) above, with A429D, A654D counted along it
Sequence of DiCas7-11;DiTPR-CHAT (chain, as listed by the source |, chain 2 of 2): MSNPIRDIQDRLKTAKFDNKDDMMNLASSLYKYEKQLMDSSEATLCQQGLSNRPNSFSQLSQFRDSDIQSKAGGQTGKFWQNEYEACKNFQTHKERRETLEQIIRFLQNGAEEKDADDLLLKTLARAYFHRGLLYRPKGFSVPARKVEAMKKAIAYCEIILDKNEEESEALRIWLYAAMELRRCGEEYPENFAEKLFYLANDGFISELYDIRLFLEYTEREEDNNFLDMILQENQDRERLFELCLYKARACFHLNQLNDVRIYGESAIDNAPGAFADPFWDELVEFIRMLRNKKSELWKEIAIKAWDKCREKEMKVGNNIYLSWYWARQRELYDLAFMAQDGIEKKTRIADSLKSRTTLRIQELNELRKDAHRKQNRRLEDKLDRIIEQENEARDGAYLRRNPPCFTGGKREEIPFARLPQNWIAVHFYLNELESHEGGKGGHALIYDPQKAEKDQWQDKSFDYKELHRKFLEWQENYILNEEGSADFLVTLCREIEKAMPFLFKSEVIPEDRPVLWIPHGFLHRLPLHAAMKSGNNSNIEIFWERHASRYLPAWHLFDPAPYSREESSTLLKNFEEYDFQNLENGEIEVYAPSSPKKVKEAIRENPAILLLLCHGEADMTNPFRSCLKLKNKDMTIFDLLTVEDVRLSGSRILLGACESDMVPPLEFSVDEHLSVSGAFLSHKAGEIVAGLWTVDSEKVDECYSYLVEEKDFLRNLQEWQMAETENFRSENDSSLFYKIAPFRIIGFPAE
Sequence of DiCas7-11 (A0A401FT36 entry or part of it): as the sequence (A0A401FT36 entry or part of it D429A;D654A) above, with A429D, A654D counted along it

UUGAUGUCACGGAACCUUUGUUGUCUUCGACAUGGGUA (structured_RNA) [mature crRNA in cryo-EM structures, U(-15)-A(23)]
binding result (DiCas7-11): binds | binding result (DiCas7-11;DiTPR-CHAT NTD): binds | binding result (DiCas7-11;DiTPR-CHAT): binds

B1: single spacer pre-crRNA (ssRNA)
RNA: GGUUGGAAAGCCGGUUUUCUUUGAUGUCACGGAACCUUUGUUGUCUUCGACAUGGGUAAUCCUCAU
binding result (DiCas7-11Inactive): binds

Source: PMC11089037, “Structural basis of negative regulation of CRISPR-Cas7-11 by TPR-CHAT”
